Reference: the Human Domainome abundance scans (Beltran et al. 2025)

B1: Chromodomain-helicase-DNA-binding protein 7, residues 2564 to 2605; numbered along this chain, Q9P2D1 (parent)
chain: DPDTRIPVINLEDGTRLVGEDAPKNKDLVEWLKLHPTYTVDM

Variants of: B1
Assay: abundance fitness (aPCA) (normalised: wild type 0, dead -1); higher = more abundant; growth selection in yeast, the domain comes from the species named
Conditions: Homo sapiens

Abundance fitness of substitutions, site by site:
K24: Y -0.237, R -0.188, H -0.107, Q -0.243, V -0.475, P -0.449, C -0.094, F -0.444, A -0.022, I -0.165, G -0.552, L -0.099, M 0.274, S -0.206, D -0.489, W -0.426, T -0.047
L32: A -0.537, C -0.343, T -0.334, D -0.332, N -0.342, E -0.324, S -0.255, V -0.586, R -0.332, F -0.375, W -0.574, G -0.214, I -0.434
W31: E -0.099, Q -0.569, P -0.141, I -0.463, R -0.363, V -0.336, C -0.301, G -0.163, Y -0.297, S -0.38, T -0.398, A -0.166, L -0.492, F 0.223, M -0.196, D -0.128
L28: F -0.24, A -0.292, E -0.41, P -0.568, Q -0.841, N -0.524, V -0.185, S -0.39, T -0.355, G -0.401, W -0.827, Y -0.499, D -0.432, H -0.134, M -0.321, K -0.454, I -0.129
R16: C 0.154, K 0.06, L -0.077, S 0.132, V 0.059, G -0.4, M 0.502, H 0.071, A -0.039, Q -0.23, N -0.128, W -0.173
D21: C -0.07, N -0.054, H -0.109, V -0.508, K -0.134, R -0.316, W -0.442, P -0.378, E -0.207, Q -0.018, M -0.161, A -0.279, L -0.161, Y -0.165, I -0.512, F -0.17, S -0.093, T -0.246
A22: M -0.673, E -0.839, W -1.04, S -0.358, T -0.527, H -0.306, F -0.466, P -0.622, Y -1.03, L -0.539, R -0.477, C -0.168, N -0.519, D -0.565, I -0.483, V -0.79
L17: H -0.095, S -0.421, F -0.191, Y -0.217, P -1.01, M 0.151, Q -0.124, C -0.272, G -0.371, V -0.17, D -0.41, I -0.012, T -0.308, W -0.527, N -0.351, R -0.046, E -0.321
L11: H 0.293, N 0.242, S 0.193, M 0.355, D 0.067, G 0.094, I 0.214, Y 0.064, T 0.353, R -0.104, K 0.005, C -0.195, E 0.058, F 0.015
K33: G -0.215, A 0.162, D -0.01, E -0.04, C -0.4, F -0.339
P23: K -0.515, F -0.784, W -1.09, E -0.684, S -0.79, R -0.843, M -0.654, V -0.658, L -0.725, Q -0.252, A -1.35, I -0.496, C -0.497, Y -1.1, H -0.679, N -0.915
V29: R 0.121, H 0.098, K 0.229, F -0.168, T 0.169
